# Reference: PMC3496659, “Analysis of the sulfur-regulated control of the cystathionine γ-lyase gene of Neurospora crassa”
# T1: CYS3 transcriptional activator (Neurospora crassa, UniProt P22697 1-236)
# T1 sequence: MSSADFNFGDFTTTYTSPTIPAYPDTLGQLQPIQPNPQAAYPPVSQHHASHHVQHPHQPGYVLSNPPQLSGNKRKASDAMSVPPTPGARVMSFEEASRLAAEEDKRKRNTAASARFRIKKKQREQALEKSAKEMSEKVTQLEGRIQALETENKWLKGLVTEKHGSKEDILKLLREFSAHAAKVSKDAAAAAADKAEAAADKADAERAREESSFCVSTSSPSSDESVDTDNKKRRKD
# B1: cys-16+ Site 3 (dsDNA)
# DNA 1: AACCTGAATTGCGCCATAGCCAAA
# DNA 2: TTTGGCTATGGCGCAATTCAGGTT
# Biological target: T1, CYS3 transcriptional activator
# Experiment: EMSA; Binding buffer not given (refs 14,20); 4% PAGE in 50 mM Tris-80 mM glycine-2 mM EDTA pH 8.5, 20 mA, 4 C
# Conditions: protein: recombinant; chain copies: 2; label: 32P (T4 PNK); blunt
binder,measurement,value
B1,binding result,binds
